Results reported in patent US20130315914A1 (NOVIMMUNE, published 2013).
Where a chain is given by its changes, count along the chain named.

B1: 1E11.C2E3 antibody (IgG1) (antibody, V domains shown)
VH: QVQLQESGPGLVKPSDTLSLTCAVSGYPIRFGYSWHWIRQPPGKGLEWMGYIHYSGYTDFNPSLKTRITISRDTSKNQFSLKLSSVTAVDTAVYYCARKDSGNYFPYWGQGTLVTVSS
VL: EIVLTQSPDFQSVTPKEKVTITCRASQSISDHLHWYQQKPDQSPKLLIKYASHAISGVPSRFSGSGSGTDFTLTINSLEAEDAATYYCQQGYDFPLTFGGGTKVEIK
B2: humanized anti-TLR4 antibody 15C1 (antibody, V domains shown)
VH: B1 VH with P28S, R30T, F31G, S101P, G102S, N103D, Y104A
VL: B1 VL with Y92H, D93S
notes: also called 15C1 Mab; parental antibody 15C1
B3: 1E11.C4 antibody (IgG1) (antibody, V domains shown)
VH: B1 VH with Y27F, R30G, F31Q
VL: B1 VL with Y92H, D93S

Experiments:
[1] = biological target: T1, soluble histidine-tagged form of human TLR4/MD2 complex (human, UniProt Q9Y6Y9 19-160); test: competitive ELISA; 15C1 reference EC50 divided by variant EC50
T1 sequence (Q9Y6Y9 19-160, one chain of several): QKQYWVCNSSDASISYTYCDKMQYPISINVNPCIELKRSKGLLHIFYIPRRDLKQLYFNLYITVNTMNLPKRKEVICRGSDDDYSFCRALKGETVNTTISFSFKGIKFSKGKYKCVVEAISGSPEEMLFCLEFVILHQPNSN
Method: (§1) The VH and VL cDNA sequences in their appropriate expression vectors were transfected into mammalian cells using the Fugene 6 Transfection Reagent (Roche, Basel, Switzerland). Briefly, Peak cells were cultured in 6-well plates at a concentration of 6×10⁵ cells per well in 2 mL culture media containing fetal bovine serum. The expression vectors, encoding the candidate VH and VL sequences, were co-transfected into the cells using the Fugene 6 Transfection Reagent according to manufacturer's instructions. One day following transfection, the culture media was aspirated, and 3 mL of fresh serum-free media was added to cells and cultured for three days at 37° C. Following three days culture period, the supernatant was harvested for IgG purified on protein G-Sepharose 4B fast flow columns (Sigma, St. Louis, Mo.) according to manufacturer's instructions. Briefly, supernatants from transfected cells were incubated overnight at 4° C. with ImmunoPure (G) IgG binding buffer (Pierce, Rockford Ill.). Samples were then passed over Protein G-Sepharose 4B fast flow columns and the IgG consequently purified using elution buffer. The eluted IgG fraction was then dialyzed against PBS and the IgG content quantified by absorption at 280 nm. Purity and IgG integrity were verified by SDS-PAGE. Relative binding potency of 1E11 variants was assessed by competitive ELISA. Briefly, 15C1 antibody was coated overnight in a 96-well Maxisorp plate and then blocked with PBS-BSA. The 15C1 reference antibody and affinity matured variants of 1E11 were added to the plate at a fixed concentration and a 3.5-fold serial dilution of the samples was performed. Then, soluble histidine-tagged form of human TLR4/MD2 complex was added to the plate at a fixed concentration. After incubation one hour at 37° C., the plate was washed and a solution of Penta-His-HRP antibody was distributed, this step was followed by an additional incubation time of one hour at 37° C. Finally, the plate was washed and TMB was added for colorimetric revelation, the enzymatic reaction is stopped by H₂SO₄ solution. The results were determined according to the absorbance at 450 nm. The relative binding potency was calculated by dividing the reference EC₅₀ with affinity matured variants EC₅₀ (Table 8).

[2] = biological target: T1, soluble histidine-tagged form of human …; test: competitive ELISA, as retold in Example 9 (Table 8 prints 39 for this clone)
Method: Briefly, supernatants from transfected cells were incubated overnight at 4° C. with ImmunoPure (G) IgG binding buffer (Pierce, Rockford Ill.). Samples were then passed over Protein G-Sepharose 4B fast flow columns and the IgG consequently purified using elution buffer. The eluted IgG fraction was then dialyzed against PBS and the IgG content quantified by absorption at 280 nm. Purity and IgG integrity were verified by SDS-PAGE. Relative binding potency of 1E11 variants was assessed by competitive ELISA. Briefly, 15C1 antibody was coated overnight in a 96-well Maxisorp plate and then blocked with PBS-BSA. The 15C1 reference antibody and affinity matured variants of 1E11 were added to the plate at a fixed concentration and a 3.5-fold serial dilution of the samples was performed. Then, soluble histidine-tagged form of human TLR4/MD2 complex was added to the plate at a fixed concentration. After incubation one hour at 37° C., the plate was washed and a solution of Penta-His-HRP antibody was distributed, this step was followed by an additional incubation time of one hour at 37° C. Finally, the plate was washed and TMB was added for colorimetric revelation, the enzymatic reaction is stopped by H₂SO₄ solution. The results were determined according to the absorbance at 450 nm. The relative binding potency was calculated by dividing the reference EC₅₀ with affinity matured variants EC₅₀ (Table 8). […]

[3] = biological target: T1, soluble histidine-tagged form of human …; test: competitive ELISA; coated 15C1 as competitor, soluble His-tagged human TLR4/MD2, Penta-His-HRP
Method: as §1

[4] = biological target: human TLR4 in human whole blood (human); test: cell-based or functional assay
[5] = biological target: T2, cynomolgus monkey TLR4 expressed on stably transfected CHO-K1 cells (cynomolgus monkey, UniProt Q9TSP2 24-826 (Papio anubis entry)); test: summary grade (species binding potential); assay not given
T2 construct: Transfected alone; also called CHO cells expressing the cynomolgus monkey TLR4
T2 chain: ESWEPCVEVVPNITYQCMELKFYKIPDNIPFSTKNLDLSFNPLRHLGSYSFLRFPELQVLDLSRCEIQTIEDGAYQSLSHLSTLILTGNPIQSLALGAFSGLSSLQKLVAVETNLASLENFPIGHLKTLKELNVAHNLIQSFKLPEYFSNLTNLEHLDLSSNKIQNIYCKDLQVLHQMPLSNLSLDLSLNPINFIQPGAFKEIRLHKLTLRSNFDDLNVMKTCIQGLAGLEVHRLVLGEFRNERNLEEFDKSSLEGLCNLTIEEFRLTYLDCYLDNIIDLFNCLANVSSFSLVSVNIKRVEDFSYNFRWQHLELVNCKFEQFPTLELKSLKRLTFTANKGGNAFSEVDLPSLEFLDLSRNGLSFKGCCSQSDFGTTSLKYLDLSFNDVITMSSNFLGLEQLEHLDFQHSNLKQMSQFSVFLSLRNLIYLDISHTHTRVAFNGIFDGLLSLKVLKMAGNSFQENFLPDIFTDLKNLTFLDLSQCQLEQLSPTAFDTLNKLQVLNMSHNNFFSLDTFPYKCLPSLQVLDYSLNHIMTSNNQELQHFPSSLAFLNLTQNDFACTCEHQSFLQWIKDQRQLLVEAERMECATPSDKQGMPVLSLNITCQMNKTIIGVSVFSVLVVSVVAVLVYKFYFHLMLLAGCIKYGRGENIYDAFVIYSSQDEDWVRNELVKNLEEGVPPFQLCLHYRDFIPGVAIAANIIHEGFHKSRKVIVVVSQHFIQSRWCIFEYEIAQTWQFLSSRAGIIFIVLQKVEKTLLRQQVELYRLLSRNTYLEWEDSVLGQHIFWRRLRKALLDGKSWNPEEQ

[6] = biological target: T2, cynomolgus monkey TLR4 expressed on …; test: flow cytometry; purified IgG on CHO cells expressing cynomolgus TLR4
Method: 10⁵ CHO cells or CHO cells expressing the cynomolgus monkey TLR4 were incubated in phosphate-buffered saline, 2% bovine serum albumin with different concentrations of purified antibodies selected by FMAT (1A1, 1A6, 1B12, 1C7, 1C10, 1C12, 1D10, 1E11, 1G12) with 15C1 as control. Cells were washed in phosphate-buffered saline, 2% bovine serum albumin and incubated in Alexa Fluor® 647 goat anti human IgG (H+L) (1:200; Invitrogen). Cells were analyzed using a FACS calibur cytometer (BD Biosciences).

[7] = biological target: T1, soluble histidine-tagged form of human …; test: competitive ELISA; lower end of the range, tied to 1E11.C4 by Table 8 (2.5 there)
Method: The VH and VL cDNA sequences in their appropriate expression vectors were transfected into mammalian cells using the Fugene 6 Transfection Reagent (Roche, Basel, Switzerland). Briefly, Peak cells were cultured in 6-well plates at a concentration of 6×10⁵ cells per well in 2 mL culture media containing fetal bovine serum. The expression vectors, encoding the candidate VH and VL sequences, were co-transfected into the cells using the Fugene 6 Transfection Reagent according to manufacturer's instructions. One day following transfection, the culture media was aspirated, and 3 mL of fresh serum-free media was added to cells and cultured for three days at 37° C. Following three days culture period, the supernatant was harvested for IgG purified on protein G-Sepharose 4B fast flow columns (Sigma, St. Louis, Mo.) according to manufacturer's instructions. Briefly, supernatants from transfected cells were incubated overnight at 4° C. with ImmunoPure (G) IgG binding buffer (Pierce, Rockford Ill.). […] The eluted IgG fraction was then dialyzed against PBS and the IgG content quantified by absorption at 280 nm. […] Relative binding potency of 1E11 variants was assessed by competitive ELISA. […] The results were determined according to the absorbance at 450 nm. The relative binding potency was calculated by dividing the reference EC₅₀ with affinity matured variants EC₅₀ (Table 8).

Row | Binder | Relative binding potency increase [1] | increase in binding potency (fold, compared to 15C1) [2] | EC50 [3] | IC50, inhibition of IL-6 production in human whole blood assay [4] | fold better than 15C1 at blocking human TLR4 (human whole blood assay) [4] | binding result [5] | binding result [6] | relative binding potency (fold-increase compared to 15C1) [7]
1 | B1 | 39 fold | 40 fold | 0.016 µg/mL | 0.05 µg/mL | 5 fold | binds |  | 
2 | B2 |  |  | 0.63 µg/mL | ~0.22 µg/mL |  |  | no binding | 
3 | B3 | 2.5 fold |  | 0.251 µg/mL |  |  | binds |  | 3 fold
